We go through 3 compounds from US11041003B2, “Crystal structure of Staphylococcus aureus clumping factor A in complex with fibrinogen derived peptide and uses thereof” (THE TEXAS A&M UNIVERSITY SYSTEM, priority 2008, dated 2021).

For one assay, the target named is αIIbβ3 (Homo sapiens, UniProt P05106+P08514). The assay can be described thus: Integrin (αIIbβ3) inhibition assay: inhibition of full length Fg binding to αIIbβ3. The following applies: 10 nM full length Fg, inhibitory ELISA type assay. How it is done: For αIIbβ3 inhibition assay. αIIbβ3Immulon 4HBX Microtiter 96-well plates (Thermo) were coated with αIIbβ3 ([…]) in TBS (25 mM Tris, 3 mM KCl, 140 mM NaCl, pH 7.4) over night at 4° C. The wells were washed with TBS containing 0.05% (w/v) Tween-20 (TBST). After blocking with 3% (w/v) BSA dissolved in TBS for 1 h at RT, 10 nM of full length Fg was applied in the presence of either WT γ^1-17, γ^1-17D16A or γ^1-17K12A peptides and plates were incubated at RT for another hour. The bound full length Fg was then detected by goat anti human Fg (1:1000 dilution, Sigma) antibody followed by horseradish peroxidase-conjugated rabbit anti-goat IgG antibody (1:1000 dilution, Cappel). After incubation with 0.4 mg/ml of substrate, o-phenylenediamine dihydrochloride (OPD, Sigma) dissolved in phosphate-citrate buffer, pH 5.0, bound antibodies were determined in an ELISA reader at 450 nm. The proteins, antibodies and peptides were diluted in TBST containing 1% (w/v) BSA, 2 mM MgCl2, 1 mM of CaCl2 and MnCl2.
To examine this possibility, the ability of the synthesized Fg WT g^1-17 and mutated peptides (g^1-17D16A and g^1-17K12A) to inhibit full length Fg binding to αIIbβ3 was analyzed by inhibitory ELISA type assay (FIG. 6).

The target of a further assay is T1, GST-Fg γ^1-17 (Homo sapiens, UniProt P02679).
T1 construct: made in house; host or cells: Escherichia coli
The assay can be described thus: ELISA-type binding of ClfA proteins to immobilized GST-Fg γ^1-17. The following applies: GST Fg γ^1-17 coated in microtiter wells; read-out: apparent Kd for GST-Fg γ^1-17.

Where a SMILES comes first, the peptide text is derived from it.

Regarding `CC(C)C[C@H](NC(=O)[C@H](Cc1c[nH]cn1)NC(=O)[C@H](Cc1c[nH]cn1)NC(=O)[C@H](CCC(N)=O)NC(=O)[C@H](CCC(N)=O)NC(=O)CNC(=O)[C@H](CCC(=O)O)NC(=O)CN)C(=O)NCC(=O)NCC(=O)N[C@@H](C)C(=O)N[C@@H](CCCCN)C(=O)N[C@@H](CCC(N)=O)C(=O)N[C@@H](C)C(=O)NCC(=O)N[C@@H](CC(=O)O)C(=O)N[C@H](C(=O)O)C(C)C` [g^1-17] (H-GEGQQHHLGGAKQAGDV-OH; N-terminus and C-terminus assumed), the “inhibition of full length Fg binding to αIIbβ3” value is on record as “completely inhibited” at αIIbβ3 and “inhibits” at αIIbβ3 (listed as Fg-γ^1-17).

“ClfA229-545: recombinant His-tag ClfA construct, residues 229-545 of SEQ ID NO:35, composed only of the N2 N3 domains”: the Kd with GST-Fg γ^1-17 was 222 nM.

“g^1-17K12A: Fg γ 395-411 peptide with Lys12→Ala (GEGQQHHLGGAAQAGDV)”: the “inhibition of full length Fg binding to αIIbβ3” value is given as “weakly inhibited” in the assay with αIIbβ3 and “very little inhibitory effect” with αIIbβ3 (listed as γ^1-17K12A).
